Common to all, as to assay: AUC; sedimentation velocity, interference optics; 40 uM protein in 25 mM TES, 100 mM NaCl, 100 uM EDTA, pH 7.4; apo samples and samples with 250 uM Cu2+ and Ca2+; no reducing agent; c(s) distribution by SedFit; self-association (monomer, dimer, higher oligomers)
Test [1] concerns the target human S100A5 C43S/C79S, Cysteine-free variant (human) (UniProt P33763).
Test [2] has as its target human S100A5, wildtype (human) (UniProt P33763).
Test [3] shares this target. This is another data set of the same source.

Where two headings read alike, the source gives them in different places.

In turn, “human S100A5 C43S/C79S, Cysteine-free variant (from UniProt P33763 1-92) (natural protein)” showed a stoichiometry N in test [1] of 2.
Consider “human S100A5, wildtype (from UniProt P33763 1-92) (natural protein)”, for which the stoichiometry N in test [2] was 2; in test [3] it was above 12.

In general, stoichiometry N refers to a count of units in the complex or per binding partner.

Values taken from article PMC5700546.
